Measured values: US20240342244A1, “Isthmin Protein Therapeutics for the Treatment of Non-Alcoholic Fatty Liver Disease” (The Board of Trustees of the Leland Stanford Junior …, priority 2021, published 2024)

Key:
[1] = system: DIO mice; test: Therapeutic ISM1 administration for five days in DIO mice; type: in vivo, mouse; conditions: 5 mg/kg for five days
Description: Therapeutic ISM1 recombinant protein administration in vivo. All pharmacologic studies using recombinant ISM1 protein were performed in mice with established diet-induced obesity or non-alcoholic fatty liver disease (NAFLD). For all experiments, male C57BL/6J mice purchased from Jax were fed either a high-fat diet (#D12492, Research Diets) or a NAFLD diet (#D09100310, Research Diets) prior to ISM1 protein injections. In all experiments, mice were mock injected with saline for three days prior to protein or drug injections to prevent stress-induced weight loss. Mice were I.P. injected with vehicle (saline) or indicated doses of ISM1 protein diluted in saline. For the 14-day experiments in NAFLD mice, 7-weeks old mice were fed with NAFLD diet for 3 weeks and then mock injected with saline for 3 days prior to protein injections. The induction of lipid accumulation with NAFLD diet was verified by the significant increase in hepatic lipid levels compared with mice on chow diet at the same time point. […] At the end of the experiments, mice and tissue weights were recorded. […]
Glucose tolerance and insulin tolerance tests. […] Blood glucose levels were measured at 0, 15, 30, 45, 60, 90 and 120 mins. […] Blood glucose levels were measured at 0, 15, 30, 45, 60, 90 and 120 mins.

[2] = system: pAKT^T308, S6^S235/S236, PRAS40^Thr246, ERK1/2, PKA, PDK1, GSK3β; test: Time-course western blot of intracellular signaling pathways in 3T3-F442A cells; type: cell-based
Description: (§1) Western blots and molecular analyses. For western blotting, homogenized tissues or whole-cell lysates, samples were lysed in RIPA buffer containing protease inhibitor cocktail (Roche) and phosphatase inhibitor cocktail (Roche). Cell lysates were centrifuged at 14,000×g for 15 min and supernatants were prepared in 4×LDS Sample Buffer (Invitrogen) and separated by SDS-PAGE and transferred to Immobilon 0.45 μm membranes (Millipore). For Western blotting of plasma samples, 1 μl of plasma was prepared in 2× sample buffer (Invitrogen) with reducing agent, boiled, and analyzed using Western blot against indicated antibody. Protein kinase array (R&D systems ARY003B) was performed according to the manufacturers' description. All antibodies used in this paper are described in STAR methods.

[3] = system: AML12 hepatocytes; test: Lipogenesis assay (3H-acetate incorporation into lipids) in AML12 hepatocytes; type: cell-based, mouse; conditions: 24 h
Description: Lipogenesis Assay. Primary hepatocytes or AML12 hepatocytes were washed twice with warm PBS and starved in serum-free DMEM overnight. Indicated concentrations of insulin with or without ISM1 were added at the same time. After 24 h, a mixture of 10 μM cold acetate and 2 μCi [3H]-Acetate (#NET003H005MC, PerkinElmer) was added to each well and cells were incubated for another 4 hr. Cells were washed with PBS twice and lysed using 0.1 N hydrogen chloride. Lipids were extracted by 2:1 chloroform-methanol (v/v). After centrifugation at 3000×g for 10 min, the lower phase was transferred to scintillation vials and radioactivity was measured by liquid scintillation counting.

[4] = system: human primary skeletal muscle cells; test: 2-deoxy-3H-glucose uptake in human primary skeletal muscle cells; type: cell-based; conditions: for induction of glucose uptake compared with control cells: 1 h
[5] = system: IGF-I-Receptor β Tyr1135/1136 or Insulin receptor Tyr1150/1151; test: Western blot of phosphorylated insulin and IGF receptors in 3T3-F442A cells; type: cell-based; conditions: 100 nM; 2 minutes
Description: as §1

[6] = system: srebp1c; test: Lipogenic gene and SREBP-1c protein expression in primary adipocytes; type: cell-based, mouse
Description: Gene expression analysis. Total RNA from cultured cells or tissues was isolated using TRIzol (Thermo Fischer Scientific) and Rneasy mini kits (QIAGEN). RNA was reverse transcribed using the ABI high capacity cDNA synthesis kit. For qRT-PCR analysis, cDNA, primers and SYBR-green fluorescent dye (ABI) were used. Relative mRNA expression was determined by normalization with Cyclophilin levels using the ΔΔCt method.
as §1

B1: ISM1: recombinant mouse ISM1 protein with a C-terminal myc-his tag generated in mammalian HEK 293 Expi cells (protein, UniProt A2ATD1 30-454, looked up)
Isthmin-1: SDRQDAAAGNNNLNLESDSTSETSFPLSKEAPEEHQVVHQPFPRQRFPPETGHPSLQRDGPRSFLLDLPNFPDLSKADINGQNPNIQVTIEVVDGPDSEAEKDQHPENKPSWSLPAPDWRAWWQRSLSLARTNSGDQDDKYDSTSDDSNFLSVPRGWDRPAPGHRTFETKEQPEYDSTDGEGDWSLWSVCSVTCGNGNQKRTRSCGYACIATESRTCDRPNCPGIEDTFRTAATEVSLLAGSEEFNATKLFEVDMDSCERWMSCKSEFLKKYMHKVINDLPSCPCSYPTEVAYSTADIFDRIKRKDFRWKDASGPKEKLEIYKPTARYCIRSMLSLESTTLAAQHCCYGDNMQLITRGKGAGTPNLISTEFSAELHYKVDVLPWIICKGDWSRYNEARPPNNGQKCTESPSDEDYIKQFQEAREY
modifications: C-terminal myc-His tag
notes: recombinant mouse ISM1 protein with a C-terminal myc-his tag generated in mammalian HEK 293 Expi cells
**Q.** Which results are given for B1?
**A.** insulin tolerance (ITT) [1]: modest improvement; ad lib glucose levels ([1]; vs vehicle): no difference; activation of S6^S235/S236 and PRAS40^Thr246 ([2]; 100 nM, time course): time-dependent activation; pAKT^T308 phosphorylation ([2]; 100 nM, time course): phosphorylation at pAKT^T308 at all time points; ERK1/2 phosphorylation ([2]; 100 nM, vs 20 ng/ml PDGF-ββ): does not evoke as robust ERK1/2 phosphorylation as the known mitogen PDGF-ββ; ERK1/2 phosphorylation ([2]; 200 nM ISM1 vs 100 nM insulin): prolonged and more potent phosphorylation of ERK1/2 than insulin; activity on other pathways such as PKA, PDK1 or GSK3P ([2]; even at 200 nM doses): does not display any activity or displays only weak activity; lipogenesis at supraphysiological insulin ([3]; 50 nM ISM1 in presence of 200 nM insulin): sufficient to reduce lipogenesis; insulin-induced lipogenesis ([3]; 50 and 100 nM ISM1 with 50 nM insulin): reverse the insulin-induced lipogenesis dose-dependently; induction of glucose uptake compared with control cells ([4]; 50 nM): 5 fold; induction of glucose uptake compared with control cells ([4]; 200 nM): 7 fold; effect on glucose uptake relative to that of insulin ([4]; human skeletal muscle cells): 70%; IGF-R/IR phosphorylation [5]: no phosphorylation; cleaved SREBP-1c protein levels ([6]; insulin-stimulated conditions): potently reduces the cleaved SREBP-1c protein levels; srebp1c, acc, fas and ChREBPβ gene expression ([6]; insulin-stimulated conditions): suppressing srebp1c and the lipogenesis target genes acc, fas, and ChREBPβ; srebp1c expression under basal conditions ([6]; primary adipocytes): no induction
